T1: human MPIF-1/CCL23 (human, UniProt P55773 46-120)
T1 sequence: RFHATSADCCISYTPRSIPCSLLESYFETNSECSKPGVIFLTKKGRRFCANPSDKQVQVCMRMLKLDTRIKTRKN

T2: HCC-4
T2 construct: also called HCC-4/CCL16; CCL16
T2 chemokine: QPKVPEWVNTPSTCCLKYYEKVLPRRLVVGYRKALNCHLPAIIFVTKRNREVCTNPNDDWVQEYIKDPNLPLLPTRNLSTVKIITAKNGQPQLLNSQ

T3: human HCC-2/MIP-1δ/CCL15 (human, UniProt Q16663 46-113)
T3 sequence: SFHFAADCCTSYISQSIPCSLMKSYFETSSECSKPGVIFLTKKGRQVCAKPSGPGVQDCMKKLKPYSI

T4: human PARC/CCL18 (human, UniProt P55774 21-89)
T4 sequence: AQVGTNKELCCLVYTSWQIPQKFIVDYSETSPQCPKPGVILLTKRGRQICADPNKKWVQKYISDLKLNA

T5: I-309
T5 construct: also called I-309/CCL1; CCL1
T5 chemokine: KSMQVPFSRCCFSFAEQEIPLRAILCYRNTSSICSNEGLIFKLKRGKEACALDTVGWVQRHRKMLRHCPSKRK

T6: Eotaxin-2
T6 construct: also called Eotaxin-2/CCL24; CCL24
T6 chemokine: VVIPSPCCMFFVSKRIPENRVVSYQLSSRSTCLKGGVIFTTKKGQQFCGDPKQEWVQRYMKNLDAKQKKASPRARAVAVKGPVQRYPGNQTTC

T7: human HCC-1/CCL14/CCL14a (human, UniProt Q16627 28-93)
T7 sequence: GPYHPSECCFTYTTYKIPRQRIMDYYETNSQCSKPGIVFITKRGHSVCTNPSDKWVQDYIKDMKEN

T8: MDC
T8 construct: also called MDC/CCL22; CCL22
T8 chemokine: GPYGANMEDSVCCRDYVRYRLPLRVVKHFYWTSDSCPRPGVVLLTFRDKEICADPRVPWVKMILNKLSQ

T9: ELC
T9 construct: also called ELC/MIP-3β/CCL19; CCL19
T9 chemokine: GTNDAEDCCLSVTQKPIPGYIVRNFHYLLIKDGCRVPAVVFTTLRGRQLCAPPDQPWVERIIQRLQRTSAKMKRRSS

T10: BCA1
T10 construct: also called BCA-1/BLC/CXCL13; CXCL13
T10 chemokine: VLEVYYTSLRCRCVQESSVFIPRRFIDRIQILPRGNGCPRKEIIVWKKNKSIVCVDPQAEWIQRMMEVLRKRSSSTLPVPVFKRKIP


Experiments:
MCP-4 = biological target: T11, MCP-4; test: MSD electrochemiluminescence assay; chemokine coated at 1 µg/mL, 18V4F at 3 µg/mL; background = BSA
T11 construct: also called MCP-4/CCL13; CCL13

human MPIF-1/CCL23 = biological target: T1, human MPIF-1/CCL23; test: as above
HCC-4 = biological target: T2, HCC-4; test: as above
human HCC-2/MIP-1δ/CCL15 [1] = biological target: T3, human HCC-2/MIP-1δ/CCL15; test: as above
human PARC/CCL18 = biological target: T4, human PARC/CCL18; test: as above
Eotaxin = biological target: T12, Eotaxin; test: as above
T12 construct: also called Eotaxin/CCL11; CCL11

MIP3-α = biological target: T13, MIP3-α; test: as above
T13 construct: also called LARC/MIP-3α/CCL20; CCL20

I-309 [2] = biological target: T5, I-309; test: as above
Eotaxin-2 = biological target: T6, Eotaxin-2; test: as above
human HCC-1/CCL14/CCL14a = biological target: T7, human HCC-1/CCL14/CCL14a; test: as above
MCP-3 = biological target: T14, MCP-3; test: as above
T14 construct: also called MCP-3/CCL7; CCL7

human MCP-1/CCL2 = biological target: T15, human MCP-1/CCL2 (human, UniProt P13500 24-99); test: as above
T15 construct: also called Biotin-MCP1

MDC [3] = biological target: T8, MDC; test: as above
ELC = biological target: T9, ELC; test: as above
BCA1 = biological target: T10, BCA1; test: as above
human HCC-2/MIP-1δ/CCL15 [4] = biological target: T3, human HCC-2/MIP-1δ/CCL15; test: MSD electrochemiluminescence assay; chemokine coated at 1 µg/mL, 7D12A at 3 µg/mL; background = BSA
I-309 [5] = biological target: T5, I-309; test: as above
SDF = biological target: T16, SDF; test: as above
T16 construct: also called SDF-1/CXCL12; CXCL12

IL-8 = biological target: T17, IL-8; test: as above
T17 construct: also called IL-8/CXCL8; CXCL8

MDC [6] = biological target: T8, MDC; test: as above

T11 sequence (chemokine, as listed by the source): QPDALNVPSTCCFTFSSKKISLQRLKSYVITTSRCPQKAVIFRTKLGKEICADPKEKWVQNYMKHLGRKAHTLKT
T14 sequence (chemokine, as listed by the source): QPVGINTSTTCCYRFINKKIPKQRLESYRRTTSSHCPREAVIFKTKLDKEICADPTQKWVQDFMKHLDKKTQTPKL
T17 sequence (chemokine, as listed by the source): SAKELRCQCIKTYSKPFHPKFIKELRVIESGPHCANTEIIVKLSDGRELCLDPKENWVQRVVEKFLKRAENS
T13 sequence (chemokine, as listed by the source): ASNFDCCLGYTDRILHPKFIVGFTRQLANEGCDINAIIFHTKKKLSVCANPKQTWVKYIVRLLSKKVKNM
T12 sequence (chemokine, as listed by the source): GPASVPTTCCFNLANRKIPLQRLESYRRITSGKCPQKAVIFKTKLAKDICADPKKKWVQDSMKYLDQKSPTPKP
T16 sequence (chemokine, as listed by the source): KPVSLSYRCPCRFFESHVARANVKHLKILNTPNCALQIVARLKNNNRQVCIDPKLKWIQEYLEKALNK
T15 sequence (P13500 24-99 limits assumed): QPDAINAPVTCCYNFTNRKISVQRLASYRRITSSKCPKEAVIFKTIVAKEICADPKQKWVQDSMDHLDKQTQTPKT

| binding result (MCP-4) | binding result (human MPIF-1/CCL23) | binding result (HCC-4) | binding result (human HCC-2/MIP-1δ/CCL15 [1]) | binding result (human PARC/CCL18) | binding result (Eotaxin) | binding result (MIP3-α) | binding result (I-309 [2]) | binding result (Eotaxin-2) | binding result (human HCC-1/CCL14/CCL14a) | binding result (MCP-3) | binding result (human MCP-1/CCL2) | binding result (MDC [3]) | binding result (ELC) | binding result (BCA1) | binding result (human HCC-2/MIP-1δ/CCL15 [4]) | binding result (I-309 [5]) | binding result (SDF) | binding result (IL-8) | binding result (MDC [6]) | Binder |
| --- | --- | --- | --- | --- | --- | --- | --- | --- | --- | --- | --- | --- | --- | --- | --- | --- | --- | --- | --- | --- |
| no binding (tested: 3 µg/mL) | no binding (tested: 3 µg/mL) | no binding (tested: 3 µg/mL) | no binding (tested: 3 µg/mL) | no binding (tested: 3 µg/mL) | no binding (tested: 3 µg/mL) | no binding (tested: 3 µg/mL) | no binding (tested: 3 µg/mL) | no binding (tested: 3 µg/mL) | no binding (tested: 3 µg/mL) | no binding (tested: 3 µg/mL) | no binding (tested: 3 µg/mL) | no binding (tested: 3 µg/mL) | no binding (tested: 3 µg/mL) | no binding (tested: 3 µg/mL) |  |  |  |  |  | monoclonal antibody 18V4F (antibody, V domains shown, also called MAb 18V4F) VH: QVQLKESGPGLVAPSQSLSITCTVSGFSLTGYGIHWVRQPPGKGLEWLGVIWPGGGTNYNSALMSRLSISKDNSKSQVFLKMNSLQTDDTAMYYCARGPLITTEVSMDYWGQGTSVTVSS VL: QAVVTQESALTTSPGETVTLTCRSNTGAVTTSNYANWVQEKPDHLFTGLIGGTNNRAPGVPARFSGSLIGDKAALTITGAQTEDEAIYFCALWYSNHWVFGGGTKLTVLG |
|  |  |  |  |  |  |  |  |  |  |  |  |  |  |  | no binding (tested: 3 µg/mL) | no binding (tested: 3 µg/mL) | no binding (tested: 3 µg/mL) | no binding (tested: 3 µg/mL) | no binding (tested: 3 µg/mL) | monoclonal antibody 7D12A (antibody, V domains shown, also called MAb 7D12A) VH: EVHLQESGPSLVKPSQTLSLTCSVTGDSITNGYWNWIRKFPGNKLDYMGYISYDGNTYYNPSLKSRFSITRDTSKNQYYLQLNSVTTEDTATYYCSRGDYGTYVMDYWGQGTSVTVSS VL: NIVLTQSPVSLAVSLGQRATISCRASESVDSHGNSFMHWYQQKPGQPPKLLIYLASNLESGVPARFTGGGSGSDFTLTIDPVEADDVGTYYCQQNNEDPYTFGGGTKLEIK |
